Measured values from US20110014669A1, “Production of 1,4 Butanediol in a Microorganism” (Microbia, Inc., priority 2009, published 2011).

Experiments:
Design in all cases: key: +: measureable activity detected in the assay; −: no measurable activity detected in the assay
4-hydroxybutanal = test: Enzyme assay, oxidoreductase (step A6), cell lysates; type: biochemical; conditions: BDO biosynthetic pathway step A6
Experimental: (§1) Enzyme expression and crude lysate preparation. The enzymatic activity of each candidate enzyme is evaluated, first in E. coli and subsequently in C. glutamicum. It will be apparent to one of skill in the art that the expression and lysate preparations may need to be modified depending on the host cell and recombinant gene of interest.
E. coli: E. coli strains transformed with expression clones, for example, pUC18 or MB4124 based clones having a medium strong constitutive promoter regulating the recombinant gene of interest, are grown aerobically in LB medium (Difco) containing the appropriate antibiotic(s). At an OD600 of 0.5, IPTG is added to a final concentration of 0.25 mM. The cultures are grown to a final OD600 of 1.5 at which time the cells are collected and harvested by centrifugation. Cell pellets are resuspended in BugBuster (Novagen) reagent containing benzonase and lysozyme. Alternatively, E. coli strains transformed with expression clones, are grown overnight aerobically at 37° C. in BHI containing the appropriate antibiotic(s). 300 μL of fresh overnight culture is used to inoculate 2.7 mL BHI containing 0.25 mM IPTG and the appropriate antibiotic. The cultures are grown aerobically for 4-5 hours at 37° C. at which time the cells are collected and harvested by centrifugation. Cell pellets are frozen at −80° C. for at least 15 minutes, then thawed and resuspended in BugBuster (Novagen) reagent. Lysis and lysate collection are performed according to the manufacturer's instructions and, for example, may involve use of a sonicator and/or French press. Cleared lysates are stored on ice until enzyme assays are performed. […]
(§2) Protein Assays. Protein concentrations in lysates are determined according to the methods of Bradford et al. (Anal. Biochem. 72:248-254 [1976]) or by the method of Smith et al. (Anal. Biochem. 150(1):76-85 [1985]) and lysates are assayed according to the methods below. […]

[1] = tested on: L-glutamate 5-semialdehyde (GSA); test: Enzyme assay, oxidoreductase (step A3), cell lysates; type: biochemical; conditions: BDO biosynthetic pathway step A3
Experimental: as §1
E. coli: E. coli strains transformed with expression clones, for example, pUC18 or MB4124 based clones having a medium strong constitutive promoter regulating the recombinant gene of interest, are grown aerobically in LB medium (Difco) containing the appropriate antibiotic(s). At an OD600 of 0.5, IPTG is added to a final concentration of 0.25 mM. The cultures are grown to a final OD600 of 1.5 at which time the cells are collected and harvested by centrifugation. Cell pellets are resuspended in BugBuster (Novagen) reagent containing benzonase and lysozyme. Alternatively, E. coli strains transformed with expression clones, are grown overnight aerobically at 37° C. in BHI containing the appropriate antibiotic(s). 300 μL of fresh overnight culture is used to inoculate 2.7 mL BHI containing 0.25 mM IPTG and the appropriate antibiotic. The cultures are grown aerobically for 4-5 hours at 37° C. at which time the cells are collected and harvested by centrifugation. Cell pellets are frozen at −80° C. for at least 15 minutes, then thawed and resuspended in BugBuster (Novagen) reagent. Lysis and lysate collection are performed according to the manufacturer's instructions and, for example, may involve use of a sonicator and/or French press. Cleared lysates are stored on ice until enzyme assays are performed.
C. glutamicum: C. glutamicum strains transformed with MB4124 expression clones containing the recombinant gene of interest are grown aerobically in BHI broth supplemented with the proper antibiotic(s). At an OD600 of 0.5, IPTG is added to a final concentration of 0.25 mM. The cultures are grown to a final OD600 of 1.5 at which time the cells are collected and harvested by centrifugation. The pellet is washed once in one volume of water and resuspended in lysis buffer (1.0 ml 1.0 M HEPES buffer, pH 7.5, 0.5 ml 1M KOH, 10 μl 0.5M EDTA, protease inhibitor cocktail, water to 5 ml; the final pH will vary depending on the individual enzyme being tested) and one volume of 0.1 mm acid washed glass beads. The mixture is repeatedly alternately vortexed and held on ice for 15 seconds, eight times. After centrifugation for 5 min at 4,000 rpm, the supernatant lysate is removed and respun for 20 min at 10,000 rpm. Alternatively, C. glutamicum strains transformed with MB4124 expression clones containing the recombinant gene of interest are grown aerobically overnight in BHI broth supplemented with the proper antibiotic(s). Five mL of fresh overnight culture is used to inoculate 200 mL BHI containing 0.25 mM IPTG and the appropriate antibiotic. The cultures are grown aerobically at 30° C. for 5-7 hours at which time the cells are collected and harvested by centrifugation at 4° C. The pellet is resuspended in 15 mL ice cold 39 mM KH2PO4, 61 mM K2HPO4, 0.5 M KCl and lysed using a BioSpec BeadBeater and following the manufacturer's instructions. […]
as §2

[2] = tested on: L-glutamate 5-semialdehyde (GSA); test: Bioconversion (feeding) assay, step A3; type: cell-based; conditions: BDO biosynthetic pathway step A3
Experimental: Bioconversion assays. The activity of a candidate enzyme towards a given substrate can also be evaluated in vivo using a simple feeding assay. A strain expressing the candidate enzyme is grown in the presence of the substrate for which activity is desired. Samples of the culture are removed periodically and the cells are removed via centrifugation. The culture supernatant is then analyzed (e.g., by LC-MS) to determine how much of the substrate has been removed and how much of a given product is present.
(§3) The aldehyde dehydrogenase linked reaction was used for step A5.

[3] = tested on: L-glutamate 5-semialdehyde (GSA); test: In vitro substrate conversion assay, step A3; type: biochemical; conditions: BDO biosynthetic pathway step A3
Experimental: In Vitro Substrate Conversion. Most of the enzyme assays described above are based on recording changes in absorbance at a given wavelength. In addition to such spectrophotometric readouts, these assays can also be analyzed by more direct methods using an endpoint assay where the reaction is terminated after a given period of time and the mixture is analyzed via HPLC or LC-MS methods.
as §3

Molecule | Enzyme Assay (4-hydroxybutanal) | Enzyme Assay [1] | Bioconversion Assay [2] | In Vitro Substrate Conversion Assay [3]
DhaTCf: Enzyme candidate for BDO biosynthetic pathway step A6, SEQ ID NO. 48 (protein, listed as Citrobacter freundii) MSYRMFDYLVPNVNFFGPNAISVVGERCKLLGGKKALLVTDKGLRAIKDGAVDKTLTHLREAGIDVVVFDGVEPNPKDTNVRDGLEVFRKEHCDIIVTVGGGSPHDCGKGIGIAATHEGDLYSYAGIETLTNPLPPIVAVNTTAGTASEVTRHCVLTNTKTKVKFVIVSWRNLPSVSINDPLLMLGKPAPLTAATGMDALTHAVEAYISKDANPVTDAAAIQAIRLIARNLRQAVALGSNLKARENMAYASLLAGMAFNNANLGYVHAMAHQLGGLYDMPHGVANAVLLPHVARYNLIANPEKFADIAEFMGENTDGLSTMDAAELAIHAIARLSADIGIPQHLRDLGVKEADFPYMAEMALKDGNAFSNPRKGNEKEIAEIFRQAF | − |  |  | 
NosEN: Enzyme candidate for BDO biosynthetic pathway step A3, SEQ ID NO. 16 (protein, listed as Nostoc sp.) MPLAAVMTAPNQPVEVQQLPDPILEKGGIILETLYSEVCGTDVHLLHGRLEGVPYPIIPGHFSVGRVVETGGAVSDVNGKLIQPGAIATFLDVHETCYNCWYCLVAKASTRCPQRKVYGVTYSAKDGLLGGWSELIYLKPGVKVLTLPEEVSPKQFIAGGCALPTALHAIDRAQIQIGDVVVVQGCGPVGLSAAILALLSGAGKVIVIDKFESRLVVAKSFGVDETLAIKADDPRQHIERVLELTNGHGADVTIEATGIPIAVKEGLNMTRNGGRYVIVGHYTNTGEILINPHLEINLKHIDIRGTWGIDFSHFYRMIELLKRHSDSSKNIAWSSIISRSYTLKEINQALADVEQGSVLKAVIQPNLS |  | − | + | +
NosENp: nosE alcohol dehydrogenase from Nostoc punctiforme, step A3 enzyme candidate, SEQ ID NO. 18 (protein, Nostoc punctiforme) MPLAAVMTAPNQPVEVQQLPEPILEKGGIIIETLYSEVCGTDVHLLHGRLEGVPYPIIPGHFSVGRVVETGGAVSDVNGKLIQPGAIATFLDVHETCYNCWYCLVAKASTRCPKRKVYGVTYSAKDGLLGGWSELIYLKPGVKVLTLPEEVSPKQFIAGGCALPTALHAIDRAQIQIGDVVVVQGCGPVGLSAAILALLSGAGKVIVIDKFESRLVVAKSFGVDETLAIRADDPRQHIERVLELTNGHGADVTIEATGIPIAVKEGLNMTRNGGRYVIVGHYTNTGEILINPHLEINLKHIDIRGTWGIDFSHFYRMIELLKRHSDSSKNIAWSSIISRSYTLKEINQALVDVEQGSVLKAVIQPNLS |  | + | + | +
NosEAv: Enzyme candidate for BDO biosynthetic pathway step A3, SEQ ID NO. 20 (protein, listed as Anabaena variabilis) MPKAAVMSAPNQPVVVQQLPDPILEKGGIIVETLYSEVCGTDVHLLHGRLEGVPYPIIPGHFSVGRVVETGGAVSDVNSNLIQPGAIATFLDVHETCYNCWYCLVAKASTRCPQRKVYGVTYSAKEGLLGGWSELIYLKPGVKVLTLPAEVSPKQFIAGGCALPTALHAIDRAQIQIGDVVVVQGCGPVGLSVAILALLSGAGKVIVIDKFESRLAVAKSFGVDETLAIKADDPRQHIERVLELTNGHGADVIIEATGIPIAVKEGLNMTRNGGRYVIVGHYTNTGEILINPHLEINLKHIDIRGTWGIDFSHFYRMIELLKRHSDPKKNIAWENLISRSYTLNEINQALTDVERGSVLKAVIQPNLS |  | − | + | +
